# Results from article PMC10864208 (2024).
# Values joined by “and” are separate entries in the source; they are usually repeats but may differ in a detail not shown here. Equal entries are not always repeated. Non-standard residues stand in square brackets, D forms with d. *: point of attachment. FITC = O=C1OC2(c3ccc(O)cc3Oc3cc(O)ccc32)c2ccc(NC(=S)*)cc21; pS = N[C@@H](COP(=O)(O)O)C(=O)O
# T1: MDM2 179-193 (Homo sapiens, UniProt Q00987)
# T1 chain: {FITC}-RQRKRHK[pS]DSISLSF-NH2
# T2: MDM2 159-173 (Homo sapiens, UniProt Q00987)
# T2 chain: {FITC}-SSRRRAI[pS]ETEENSD-NH2
# T3: MDM2 179-193 (Homo sapiens, UniProt Q00987)
# T3 chain: {FITC}-RQRKRHK[pS]DSISLSF-NH2
# Assays:
# Assay in all cases: FP
# [1] = target: T1, MDM2 179-193
# [2] = target: T2, MDM2 159-173
# [3] = target: T3, MDM2 179-193
# [4] = target: MDM2 159-193 (Homo sapiens, UniProt Q00987, pS186, N-terminal FITC)
# Sequence of MDM2 159-193 (Q00987 159-193): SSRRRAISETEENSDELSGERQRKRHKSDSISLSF
Binder,Kd [1],Kd [2],Kd [3],Kd [4]
14-3-3ζ (protein) MDKNELVQKAKLAEQAERYDDMAACMKSVTEQGAELSNEERNLLSVAYKNVVGARRSSWRVVSSIEQKTEGAEKKQQMAREYREKIETELRDICNDVLSLLEKFLIPNASQAESKVFYLKMKGDYYRYLAEVAAGDDKKGIVDQSQQAYQEAFEISKKEMQPTHPIRLGLALNFSVFYYEILNSPEKACSLAKTAFDEAIAELDTLSEESYKDSTLIMQLLRDNLTLWTSDTQGDEAEAGEGGEN,11.4 µM,–,–,–
14-3-3σ (protein) MERASLIQKAKLAEQAERYEDMAAFMKGAVEKGEELSCEERNLLSVAYKNVVGGQRAAWRVLSSIEQKSNEEGSEEKGPEVREYREKVETELQGVCDTVLGLLDSHLIKEAGDAESRVFYLKMKGDYYRYLAEVATGDDKKRIIDSARSAYQEAMDISKKEMPPTNPIRLGLALNFSVFHYEIANSPEEAISLAKTTFDEAMADLHTLSEDSYKDSTLIMQLLRDNLTLWTADNAGEEGGEAPQEPQS,24.6 µM and ~26.2 µM,> 115 µM,10.8 µM,> 124 µM
